Experimental data taken from patent US20050069951A1 (KARO BIO, published 2005).
Where no end group is shown, it is not given here. The star is where a group is joined. Biotin = O=C1N[C@H]2[C@H](CS[C@H]2CCCCC(=O)*)N1

What was measured:
biotinylated ProRS = molecular target: T1, biotinylated ProRS (E. coli, UniProt P16659 1-572, biotinylated with Sulfo NHS-LC-LC biotin, sites not stated); assay: phage ELISA, biotinylated target
T1 construct: also called biotinylated E. coli ProRS
T1 sequence: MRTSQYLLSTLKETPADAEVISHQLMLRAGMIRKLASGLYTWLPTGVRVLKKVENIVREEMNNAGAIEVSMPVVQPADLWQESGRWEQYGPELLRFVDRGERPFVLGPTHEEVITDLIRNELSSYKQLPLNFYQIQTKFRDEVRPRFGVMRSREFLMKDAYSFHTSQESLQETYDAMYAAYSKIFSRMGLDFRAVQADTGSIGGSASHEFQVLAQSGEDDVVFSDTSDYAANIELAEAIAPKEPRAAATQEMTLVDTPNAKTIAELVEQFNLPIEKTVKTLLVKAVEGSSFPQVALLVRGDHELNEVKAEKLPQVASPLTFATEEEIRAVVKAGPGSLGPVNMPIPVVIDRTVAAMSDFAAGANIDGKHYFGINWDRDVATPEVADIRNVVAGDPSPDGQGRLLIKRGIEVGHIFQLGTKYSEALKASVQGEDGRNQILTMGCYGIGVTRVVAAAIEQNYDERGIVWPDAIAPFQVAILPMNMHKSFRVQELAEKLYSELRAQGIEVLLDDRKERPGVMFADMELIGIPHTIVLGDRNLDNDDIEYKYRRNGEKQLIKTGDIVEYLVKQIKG

[1] = molecular target: T2, E. coli proline tRNA synthetase (E. coli, UniProt P16659 1-572); assay: phage ELISA on immobilized ProRS and a variety of proteins
T2 construct: also called ProRS; E. coli ProRS
T2 sequence: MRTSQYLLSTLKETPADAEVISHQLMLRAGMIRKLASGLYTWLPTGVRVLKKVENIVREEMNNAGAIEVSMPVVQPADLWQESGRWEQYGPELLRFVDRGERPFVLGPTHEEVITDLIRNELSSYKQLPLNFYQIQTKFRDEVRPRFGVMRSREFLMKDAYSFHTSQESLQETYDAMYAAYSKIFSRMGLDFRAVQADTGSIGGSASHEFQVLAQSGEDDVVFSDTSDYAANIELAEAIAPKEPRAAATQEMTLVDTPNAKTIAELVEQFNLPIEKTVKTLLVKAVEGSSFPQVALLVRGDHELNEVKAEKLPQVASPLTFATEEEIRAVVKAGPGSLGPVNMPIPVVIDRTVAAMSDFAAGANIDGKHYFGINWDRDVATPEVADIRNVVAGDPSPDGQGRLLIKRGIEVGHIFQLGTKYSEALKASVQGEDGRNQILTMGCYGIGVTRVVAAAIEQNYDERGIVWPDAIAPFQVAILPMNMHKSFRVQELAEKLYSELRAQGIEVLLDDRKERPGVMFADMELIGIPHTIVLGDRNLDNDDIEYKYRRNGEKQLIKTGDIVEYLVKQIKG

[2] = molecular target: T3, Agrobacterium faecalis beta-glucosidase (Agrobacterium faecalis, UniProt P12614 1-459, biotinylated with Sulfo NHS-LC-LC biotin, sites not stated); assay: phage ELISA, biotinylated target on streptavidin plate
T3 construct: captured on streptavidin beads or plates; also called β-glucosidase
T3 sequence: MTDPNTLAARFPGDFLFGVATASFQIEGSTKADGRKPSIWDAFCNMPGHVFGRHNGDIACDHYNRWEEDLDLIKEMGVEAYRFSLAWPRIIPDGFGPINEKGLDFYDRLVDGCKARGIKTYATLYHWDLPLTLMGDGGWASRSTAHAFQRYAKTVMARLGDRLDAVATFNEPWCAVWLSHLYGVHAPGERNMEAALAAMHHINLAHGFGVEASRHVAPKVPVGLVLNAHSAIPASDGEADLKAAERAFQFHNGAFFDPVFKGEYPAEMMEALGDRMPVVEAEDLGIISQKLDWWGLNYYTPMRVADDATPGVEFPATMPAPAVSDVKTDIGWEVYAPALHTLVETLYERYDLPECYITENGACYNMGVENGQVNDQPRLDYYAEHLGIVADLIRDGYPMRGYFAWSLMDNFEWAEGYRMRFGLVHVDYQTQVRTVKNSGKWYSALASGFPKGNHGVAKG

[3] = molecular target: T4, Yeast alcohol dehydrogenase (yeast, UniProt P00330 2-348); assay: cross reactivity phage ELISA
T4 sequence (looked up): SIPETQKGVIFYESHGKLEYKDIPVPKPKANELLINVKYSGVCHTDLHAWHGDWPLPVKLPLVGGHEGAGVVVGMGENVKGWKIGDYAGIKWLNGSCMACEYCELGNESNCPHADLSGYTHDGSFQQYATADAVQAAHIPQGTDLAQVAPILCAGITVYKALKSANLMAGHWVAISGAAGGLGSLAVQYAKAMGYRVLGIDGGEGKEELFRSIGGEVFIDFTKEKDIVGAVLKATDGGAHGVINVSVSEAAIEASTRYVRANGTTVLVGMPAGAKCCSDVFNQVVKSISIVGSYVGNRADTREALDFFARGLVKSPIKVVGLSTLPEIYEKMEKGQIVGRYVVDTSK

[4] = molecular target: T5, carboxypeptidase B from pig pancreas (pig, UniProt P09955 111-416); assay: cross reactivity phage ELISA
T5 sequence (looked up): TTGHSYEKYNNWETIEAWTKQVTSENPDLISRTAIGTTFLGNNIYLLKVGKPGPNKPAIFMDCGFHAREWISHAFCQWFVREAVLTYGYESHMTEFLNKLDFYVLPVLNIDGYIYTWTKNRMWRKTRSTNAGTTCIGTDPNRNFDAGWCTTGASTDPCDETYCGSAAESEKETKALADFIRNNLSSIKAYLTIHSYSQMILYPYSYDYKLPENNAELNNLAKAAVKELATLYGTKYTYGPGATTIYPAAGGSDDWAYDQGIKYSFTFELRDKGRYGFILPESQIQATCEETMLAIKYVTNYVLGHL

[5] = molecular target: T2, E. coli proline tRNA synthetase; assay: ELSA, immobilized ProRS
streptavidin = streptavidin (UniProt P22629 37-163, limits assumed); assay: ELSA: biotinylated peptide pre-complexed with SA-AP, immobilized target
Chain of streptavidin (P22629 37-163 limits assumed): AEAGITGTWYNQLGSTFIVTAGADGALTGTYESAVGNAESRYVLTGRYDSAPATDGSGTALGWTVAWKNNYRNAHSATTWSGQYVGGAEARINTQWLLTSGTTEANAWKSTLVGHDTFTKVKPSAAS
Description: (§1) Target protein was immobilized in microtiter wells by incubating 0.5-2.0 μg per well in 100 μl of 0.1 M NaHCO₃ overnight at 4° C. […] During the 1 hour blocking period, the SA-AP:surrogate ligand conjugate was prepared by mixing 2 μg SA-AP and 50 pmol biotinylated surrogate ligand for each well of target protein. (This corresponds to a 1:1 ratio of biotinylated peptide to biotin binding sites.) The mixture was incubated at room temperature for 15-20 minutes and then diluted with Tris-buffered saline-Tween-20 (TBST) 10 mM Tris-HCl, pH 8.0, 150 mM NaCl, 0.05% Tween-20 such that there was 100 μl of conjugate per well.
(§2) After blocking, the wells were washed once with 200 μl TBST. The surrogate ligand:SA-AP conjugate was then added (100 μl/well) and incubated at room temperature for 2 hours. […] The assay was developed by adding 100 μl of pNPP and incubating at room temperature for 5-10 minutes. The absorbance was read at 405 nm.

GST = molecular target: T6, GST (UniProt P08515 1-218 = GST); assay: as above
T6 construct: also called glutathione-S-transferase
T6 sequence (P08515 whole entry): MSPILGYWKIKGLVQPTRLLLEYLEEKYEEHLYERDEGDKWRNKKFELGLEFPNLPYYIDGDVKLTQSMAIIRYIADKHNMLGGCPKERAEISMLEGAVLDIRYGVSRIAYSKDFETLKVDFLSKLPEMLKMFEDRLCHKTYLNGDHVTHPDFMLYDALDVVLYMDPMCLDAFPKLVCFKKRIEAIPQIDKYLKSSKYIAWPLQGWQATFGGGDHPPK
Description: as §1, §2

[6] = molecular target: T2, E. coli proline tRNA synthetase; assay: tRNA charging assay (enzyme inhibition), competitive in respect to proline
[7] = molecular target: T2, E. coli proline tRNA synthetase; assay: ELSA, immobilized targets (legend of FIG. 17)

SRDWGFWRLPESMASR (on M13 phage) [phage-displayed peptide SRDWGFWRLPESMASR (CWL library)]
binding result (biotinylated ProRS): binds

SRWCDIWPDTGSCSR (on M13 phage) [ProRS-binding phage peptide SRWCDIWPDTGSCSR (P library)]
binding result [1]: binds

SSATDWGRVYSILSR (on M13 phage; group 1) [phage-displayed peptide SSATDWGRVYSILSR (R library)]
binding result [2]: binds

SSASYAPWPIYFASR (on M13 phage; group 2) [phage-displayed peptide SSASYAPWPIYFASR (W library)]
binding result [2]: binds

SRDWGFWDWGVDRSR (on M13 phage) [phage-displayed peptide SRDWGFWDWGVDRSR (D library)]
binding result (biotinylated ProRS): binds

SSGAFKPWPVYSFSR (on M13 phage; group 2) [phage-displayed peptide SSGAFKPWPVYSFSR (W library)]
binding result [2]: binds

SRWCELWPEGSGCSR (on M13 phage) [ProRS-binding phage peptide SRWCELWPEGSGCSR (P library)]
binding result [1]: binds

SRLCEVWPQTAGCSR (on M13 phage) [ProRS-binding phage peptide SRLCEVWPQTAGCSR (X10C library)]
binding result [1]: binds

SVSVGMKPSPRP (on M13 phage) [phage-displayed peptide SVSVGMKPSPRP (PHD12 library)]
fold ELISA signal on the specific target vs any other targets tested [3]: ≥ 10 fold

SREWHFWRDYNPTSR (on M13 phage) [phage-displayed peptide SREWHFWRDYNPTSR (R library)]
binding result (biotinylated ProRS): binds

B1: ProRS-binding phage peptide SRVCAIWPDLDGCSR (X10C library) (peptide)
peptide: SRVCAIWPDLDGCSR
notes: on M13 phage; SR linkers included as printed; also called most often isolated phage
binding result [1]: binds

SSERGSGDRGEKGSR (on M13 phage) [phage-displayed peptide SSERGSGDRGEKGSR (D library)]
binding result (biotinylated ProRS): binds

SRQVEVFKPWPVYSR (on M13 phage; group 2) [phage-displayed peptide SRQVEVFKPWPVYSR (K library)]
fold ELISA signal on the specific target vs any other targets tested [3]: ≥ 10 fold

SSFRELKPGWWSYSR (on M13 phage) [phage-displayed peptide SSFRELKPGWWSYSR (P library)]
fold ELISA signal on the specific target vs any other targets tested [4]: ≥ 10 fold

SSSTDWLNVWRQLSR (on M13 phage; group 1) [phage-displayed peptide SSSTDWLNVWRQLSR (N library)]
binding result [2]: binds

B2: biotinylated UL44 surrogate ligand peptide (peptide)
peptide: Biotin-SGSGEHVCSWGWGRC
modifications: not fully specified (bridges); cysteine pairing not given here
notes: synthetic; pre-complexed with streptavidin alkaline phosphatase (SA-AP) in the ELSA; also called UL44 BioKey
binding result [5]: no binding | binding result (streptavidin): no binding | binding result (GST): no binding

SSQTDWRKIFQSLSR (on M13 phage; group 1) [phage-displayed peptide SSQTDWRKIFQSLSR (K library)]
binding result [2]: binds

SSSFKPWPIYLGSSR (on M13 phage; group 2) [phage-displayed peptide SSSFKPWPIYLGSSR (P library)]
fold ELISA signal on the specific target vs any other targets tested [3]: ≥ 10 fold

B3: non-biotinylated ProRS peptide (peptide)
peptide: VCAIWPDLDGC
notes: also called non-biotinylated ProRS surrogate ligand
Ki [6]: > 500 µM

LYSWPDEQYERP (also: biotinylated, position not given here, also called TyrRS1B; TyrRS BioKey) [biotinylated peptide TyrRS1]
binding result [7]: no binding

SSNYWWQSPVLSRHSR (on M13 phage) [phage-displayed peptide SSNYWWQSPVLSRHSR (CWL library)]
fold ELISA signal on the specific target vs any other targets tested [3]: ≥ 10 fold

SRLCDIMPQTVGCSR (on M13 phage) [ProRS-binding phage peptide SRLCDIMPQTVGCSR (P library)]
binding result [1]: binds

SSEPFSVWPIYKHSR (on M13 phage; group 2) [phage-displayed peptide SSEPFSVWPIYKHSR (W library)]
binding result [2]: binds

SRWCEVWPDKRWCSR (on M13 phage) [ProRS-binding phage peptide SRWCEVWPDKRWCSR (P library)]
binding result [1]: binds

SRWCELWSQDIGCSR (on M13 phage) [ProRS-binding phage peptide SRWCELWSQDIGCSR (X10C library)]
binding result [1]: binds

SRLLEVSPGWWQMSR (on M13 phage) [phage-displayed peptide SRLLEVSPGWWQMSR (P library)]
fold ELISA signal on the specific target vs any other targets tested [4]: ≥ 10 fold

SSTSLPFNRWPIYSR (on M13 phage; group 2) [phage-displayed peptide SSTSLPFNRWPIYSR (N library)]
binding result [2]: binds

SRWCSLRPQDEGCSR (on M13 phage) [ProRS-binding phage peptide SRWCSLRPQDEGCSR (X10C library)]
binding result [1]: binds

SSLLNESRLQWSTSR (on M13 phage) [phage-displayed peptide SSLLNESRLQWSTSR (R library)]
fold ELISA signal on the specific target vs any other targets tested [3]: ≥ 10 fold

SSWQGNVLLGNWISR (on M13 phage) [phage-displayed peptide SSWQGNVLLGNWISR (L library)]
fold ELISA signal on the specific target vs any other targets tested [3]: ≥ 10 fold

SSWGDYFNWRDGLSR (on M13 phage) [phage-displayed peptide SSWGDYFNWRDGLSR (N library)]
fold ELISA signal on the specific target vs any other targets tested [4]: ≥ 10 fold

SSSVPFAPWPVYASR (on M13 phage; group 2) [phage-displayed peptide SSSVPFAPWPVYASR (P library)]
binding result [2]: binds
